According to the supplement of paper PMC10065799, “High-throughput profiling of sequence recognition by tyrosine kinases and SH2 domains using bacterial peptide display” (eLife, 2023):

Assays:
AncSZ = experiment: phosphorylation enrichment, bacterial display (enrichment ratio); higher = better substrate or ligand; peptides without Tyr show the background
EPHB1 = EPHB1 (UniProt P54762); experiment: as above
EPHB2 = EPHB2 (UniProt P29323); experiment: as above
FGFR1 = FGFR1 (UniProt P11362); experiment: as above
FGFR3 = FGFR3 (UniProt P22607); experiment: as above
Sequence of FGFR3 (P22607 whole entry, looked up): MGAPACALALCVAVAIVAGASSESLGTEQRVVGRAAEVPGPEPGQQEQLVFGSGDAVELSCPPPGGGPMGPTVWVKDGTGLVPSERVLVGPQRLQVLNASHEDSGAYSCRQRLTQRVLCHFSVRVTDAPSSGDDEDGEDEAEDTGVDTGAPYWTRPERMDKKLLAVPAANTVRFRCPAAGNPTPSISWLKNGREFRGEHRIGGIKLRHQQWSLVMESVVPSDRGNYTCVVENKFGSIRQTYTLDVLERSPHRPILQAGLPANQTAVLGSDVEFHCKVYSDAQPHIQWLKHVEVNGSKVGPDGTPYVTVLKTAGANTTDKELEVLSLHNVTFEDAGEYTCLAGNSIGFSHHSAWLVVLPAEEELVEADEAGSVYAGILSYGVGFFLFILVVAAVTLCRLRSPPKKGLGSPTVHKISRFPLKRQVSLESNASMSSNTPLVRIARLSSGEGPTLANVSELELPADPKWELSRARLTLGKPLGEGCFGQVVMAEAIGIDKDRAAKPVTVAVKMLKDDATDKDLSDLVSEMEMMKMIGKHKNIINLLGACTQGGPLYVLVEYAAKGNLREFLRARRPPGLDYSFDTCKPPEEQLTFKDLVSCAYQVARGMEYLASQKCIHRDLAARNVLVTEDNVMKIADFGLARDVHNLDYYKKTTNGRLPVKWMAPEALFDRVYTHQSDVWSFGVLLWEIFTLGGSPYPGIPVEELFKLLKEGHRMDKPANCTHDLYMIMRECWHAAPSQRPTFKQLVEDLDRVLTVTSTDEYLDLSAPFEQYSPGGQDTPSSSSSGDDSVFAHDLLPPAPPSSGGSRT

Fer (mouse) = experiment: as above
Fes = Fes (UniProt P07332); experiment: as above
Sequence of Fes (P07332 whole entry, looked up): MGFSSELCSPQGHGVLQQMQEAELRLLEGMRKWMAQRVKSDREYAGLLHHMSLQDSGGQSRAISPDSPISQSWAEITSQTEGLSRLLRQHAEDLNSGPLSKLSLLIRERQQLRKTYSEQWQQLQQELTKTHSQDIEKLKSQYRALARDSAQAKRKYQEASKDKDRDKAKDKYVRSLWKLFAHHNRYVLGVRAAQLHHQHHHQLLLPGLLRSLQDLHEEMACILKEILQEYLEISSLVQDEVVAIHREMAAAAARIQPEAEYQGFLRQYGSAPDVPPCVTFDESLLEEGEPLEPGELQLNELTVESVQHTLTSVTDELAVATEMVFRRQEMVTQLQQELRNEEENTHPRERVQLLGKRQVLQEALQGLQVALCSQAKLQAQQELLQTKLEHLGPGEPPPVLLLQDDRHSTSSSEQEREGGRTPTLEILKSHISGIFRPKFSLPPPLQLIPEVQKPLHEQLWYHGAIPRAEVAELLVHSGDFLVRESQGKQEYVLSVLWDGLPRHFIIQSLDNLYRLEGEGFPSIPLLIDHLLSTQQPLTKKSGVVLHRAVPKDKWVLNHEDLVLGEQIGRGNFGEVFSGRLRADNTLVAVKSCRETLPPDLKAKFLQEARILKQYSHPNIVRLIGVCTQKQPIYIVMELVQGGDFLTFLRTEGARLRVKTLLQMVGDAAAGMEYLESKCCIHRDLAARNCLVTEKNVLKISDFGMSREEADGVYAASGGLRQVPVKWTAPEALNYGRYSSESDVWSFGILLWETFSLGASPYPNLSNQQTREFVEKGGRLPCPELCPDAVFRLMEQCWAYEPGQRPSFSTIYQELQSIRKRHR

Fyn = Fyn (UniProt P06241); experiment: as above
Sequence of Fyn (P06241 whole entry, looked up): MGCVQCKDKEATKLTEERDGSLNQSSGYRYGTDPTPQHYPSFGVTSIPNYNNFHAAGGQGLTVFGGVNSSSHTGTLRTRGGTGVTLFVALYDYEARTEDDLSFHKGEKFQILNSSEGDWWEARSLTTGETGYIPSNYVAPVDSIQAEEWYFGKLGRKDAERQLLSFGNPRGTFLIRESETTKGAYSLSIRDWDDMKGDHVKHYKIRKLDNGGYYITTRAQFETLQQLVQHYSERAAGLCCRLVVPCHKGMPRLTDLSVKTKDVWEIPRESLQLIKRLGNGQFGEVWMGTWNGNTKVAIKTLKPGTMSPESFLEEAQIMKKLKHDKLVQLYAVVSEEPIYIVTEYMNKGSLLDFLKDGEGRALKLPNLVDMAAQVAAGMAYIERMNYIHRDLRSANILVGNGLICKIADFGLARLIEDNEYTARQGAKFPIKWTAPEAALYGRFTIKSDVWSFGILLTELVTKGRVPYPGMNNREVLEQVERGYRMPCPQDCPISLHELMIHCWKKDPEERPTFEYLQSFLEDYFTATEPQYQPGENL

Hck = Hck (UniProt P08631); experiment: as above
Sequence of Hck (P08631 whole entry, looked up): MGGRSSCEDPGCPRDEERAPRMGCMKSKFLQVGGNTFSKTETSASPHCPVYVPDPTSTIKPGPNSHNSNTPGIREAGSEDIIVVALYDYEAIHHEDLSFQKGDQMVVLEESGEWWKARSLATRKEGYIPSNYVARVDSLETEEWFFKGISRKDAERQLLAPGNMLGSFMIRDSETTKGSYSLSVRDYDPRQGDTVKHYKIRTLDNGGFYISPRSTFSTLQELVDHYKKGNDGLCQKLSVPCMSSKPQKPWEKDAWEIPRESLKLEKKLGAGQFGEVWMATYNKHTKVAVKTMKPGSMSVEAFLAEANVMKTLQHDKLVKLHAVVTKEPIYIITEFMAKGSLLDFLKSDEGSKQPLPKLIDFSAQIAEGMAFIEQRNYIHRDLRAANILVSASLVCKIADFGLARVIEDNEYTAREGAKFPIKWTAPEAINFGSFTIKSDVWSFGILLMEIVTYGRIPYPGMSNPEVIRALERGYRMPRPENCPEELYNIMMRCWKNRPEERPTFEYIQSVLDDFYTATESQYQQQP

Jak2 = Jak2 (UniProt O60674); experiment: as above
Sequence of Jak2 (O60674 whole entry, looked up): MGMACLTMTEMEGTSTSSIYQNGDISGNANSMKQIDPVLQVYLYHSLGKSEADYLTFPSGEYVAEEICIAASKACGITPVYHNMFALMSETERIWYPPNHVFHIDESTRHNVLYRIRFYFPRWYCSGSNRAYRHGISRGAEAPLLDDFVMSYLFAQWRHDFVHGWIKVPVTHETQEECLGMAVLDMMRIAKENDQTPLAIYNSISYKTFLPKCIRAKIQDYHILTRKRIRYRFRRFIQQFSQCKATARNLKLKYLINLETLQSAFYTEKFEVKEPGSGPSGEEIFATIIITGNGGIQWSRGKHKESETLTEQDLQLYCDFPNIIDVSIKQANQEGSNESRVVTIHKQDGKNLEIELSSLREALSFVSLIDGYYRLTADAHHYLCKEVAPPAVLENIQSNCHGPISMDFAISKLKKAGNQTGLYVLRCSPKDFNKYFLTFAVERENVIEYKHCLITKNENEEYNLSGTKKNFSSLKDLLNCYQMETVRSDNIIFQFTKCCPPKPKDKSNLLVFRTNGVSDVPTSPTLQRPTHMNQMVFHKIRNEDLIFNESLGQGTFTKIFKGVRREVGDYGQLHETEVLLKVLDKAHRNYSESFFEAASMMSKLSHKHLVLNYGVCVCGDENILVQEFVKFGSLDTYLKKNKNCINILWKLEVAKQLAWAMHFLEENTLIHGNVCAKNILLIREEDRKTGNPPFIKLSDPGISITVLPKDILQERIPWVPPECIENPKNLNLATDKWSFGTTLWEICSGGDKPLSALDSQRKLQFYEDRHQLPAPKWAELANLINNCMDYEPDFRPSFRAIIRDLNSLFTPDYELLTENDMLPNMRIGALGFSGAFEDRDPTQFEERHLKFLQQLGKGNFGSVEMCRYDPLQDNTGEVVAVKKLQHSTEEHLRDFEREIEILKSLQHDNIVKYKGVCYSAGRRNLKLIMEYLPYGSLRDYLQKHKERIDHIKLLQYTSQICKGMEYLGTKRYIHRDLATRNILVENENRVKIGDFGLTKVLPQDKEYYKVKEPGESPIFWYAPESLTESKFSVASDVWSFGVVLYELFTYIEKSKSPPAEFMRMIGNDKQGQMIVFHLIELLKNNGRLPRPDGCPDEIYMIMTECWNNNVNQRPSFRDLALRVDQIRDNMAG

MERTK = MERTK (UniProt Q12866); experiment: as above
c-Abl (mouse) = experiment: as above
c-Src = experiment: as above
Grb2 SH2 = Grb2 SH2 (UniProt P62993); experiment: SH2 binding enrichment of the phosphorylated peptide, bacterial display (enrichment ratio); higher = better substrate or ligand; peptides without Tyr show the background
Sequence of Grb2 SH2 (P62993 whole entry, looked up): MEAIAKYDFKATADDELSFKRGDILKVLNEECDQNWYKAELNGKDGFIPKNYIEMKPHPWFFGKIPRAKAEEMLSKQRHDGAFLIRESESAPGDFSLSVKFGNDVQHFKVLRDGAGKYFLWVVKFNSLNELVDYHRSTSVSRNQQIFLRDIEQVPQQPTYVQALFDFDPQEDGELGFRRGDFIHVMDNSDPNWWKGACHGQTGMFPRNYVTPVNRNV

SHP2-C SH2 = experiment: as above
c-Src SH2 = experiment: as above
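Throughout, for SH2 binding enrichment of the phosphorylated peptide, bacterial display: peptide library displayed on the E. coli surface as eCPX fusions, selected cells deep-sequenced, score is each peptide's frequency after selection divided by its frequency in the input.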
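Throughout, for phosphorylation enrichment, bacterial display: 11-residue human phosphosite peptides and single-mutation variants displayed on the E. coli surface, counted by deep sequencing, each peptide's frequency after selection divided by its frequency in the unselected input library; frequency after pTyr selection over input frequency; kinase dosed for 20-30% of maximal phosphorylation in three min.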

Sequence of EPHB1 (P54762 whole entry, looked up): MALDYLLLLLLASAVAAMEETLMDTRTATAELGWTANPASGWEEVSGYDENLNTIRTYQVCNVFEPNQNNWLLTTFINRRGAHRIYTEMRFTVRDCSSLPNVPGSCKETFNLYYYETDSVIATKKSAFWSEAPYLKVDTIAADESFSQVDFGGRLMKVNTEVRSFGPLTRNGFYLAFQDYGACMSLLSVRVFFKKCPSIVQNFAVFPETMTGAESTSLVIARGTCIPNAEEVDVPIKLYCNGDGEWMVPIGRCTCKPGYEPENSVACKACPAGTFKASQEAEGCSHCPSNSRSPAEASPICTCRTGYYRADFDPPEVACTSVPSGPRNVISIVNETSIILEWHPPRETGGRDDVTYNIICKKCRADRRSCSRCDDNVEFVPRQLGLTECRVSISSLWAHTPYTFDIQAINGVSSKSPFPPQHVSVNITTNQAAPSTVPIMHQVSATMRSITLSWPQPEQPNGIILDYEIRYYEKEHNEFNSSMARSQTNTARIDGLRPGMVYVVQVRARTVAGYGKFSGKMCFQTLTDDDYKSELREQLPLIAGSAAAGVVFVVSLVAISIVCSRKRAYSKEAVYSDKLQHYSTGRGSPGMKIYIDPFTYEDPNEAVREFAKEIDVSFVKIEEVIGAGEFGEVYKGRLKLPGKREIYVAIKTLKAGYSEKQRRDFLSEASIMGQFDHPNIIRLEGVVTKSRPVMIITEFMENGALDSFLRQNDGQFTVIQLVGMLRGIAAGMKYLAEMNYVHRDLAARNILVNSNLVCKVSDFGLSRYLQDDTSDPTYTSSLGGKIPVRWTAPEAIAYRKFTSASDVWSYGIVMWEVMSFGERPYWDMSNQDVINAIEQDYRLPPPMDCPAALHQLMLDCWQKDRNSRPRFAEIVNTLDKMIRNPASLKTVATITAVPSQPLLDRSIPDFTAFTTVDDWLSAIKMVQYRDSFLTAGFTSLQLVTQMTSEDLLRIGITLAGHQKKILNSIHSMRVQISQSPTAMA

Sequence	phosphorylation enrichment (AncSZ)	phosphorylation enrichment (EPHB1)	phosphorylation enrichment (EPHB2)	phosphorylation enrichment (FGFR1)	phosphorylation enrichment (FGFR3)	phosphorylation enrichment (Fer (mouse))	phosphorylation enrichment (Fes)	phosphorylation enrichment (Fyn)	phosphorylation enrichment (Hck)	phosphorylation enrichment (Jak2)	phosphorylation enrichment (MERTK)	phosphorylation enrichment (c-Abl (mouse))	phosphorylation enrichment (c-Src)	SH2 binding enrichment (Grb2 SH2)	SH2 binding enrichment (SHP2-C SH2)	SH2 binding enrichment (c-Src SH2)
FNNPAYYVLEG [INPPL1_Y986]	1.2	0.851	0.704	12.1	9.49	0.485	0.958	1.75	1.11	4.76	7.95	0.767	2.06	0.992	1.12	3.95
FPHVISARLWR [SMAD4_Y95_Y95S]	1	0.419	0.547	0.477	0.557	0.524	0.962	0.581	0.429	0.805	0.458	0.701	0.498	1.11	1.08	0.468
FRIGPYQPNVP [MATR3_Y784_YF]	0.773	0.477	0.514	0.538	0.736	0.446	0.966	0.45	0.484	0.78	0.532	0.631	0.506	0.844	0.754	0.634
FSCLPYRRLAF [SLC52A2_Y305_G306R_YF]	0.992	0.428	0.589	0.478	0.568	0.411	0.826	0.559	0.432	0.806	0.531	0.63	0.902	0.677	0.852	0.47
FSGDFYRIQGR [DDR2_Y741_YF]	0.723	0.543	0.439	0.509	0.594	0.393	0.817	0.488	0.449	0.944	0.421	0.578	0.551	0.786	0.594	0.501
FSIAQYCCRMG [LRRK2_Y2023_G2019S_YF]	0.839	0.684	5.07	0.479	0.57	0.4	0.868	0.401	0.449	0.758	0.994	1.03	0.425	1.17	0.826	0.981
FSPGSYERETF [NF1_Y2192]	0.883	0.526	0.548	0.483	0.535	0.427	0.856	0.429	0.447	0.763	0.429	0.702	0.539	0.776	0.612	0.495
FSSLGYPLPEG [ZSWIM4_Y87_P89L_YF]	0.747	0.372	0.446	0.413	0.472	0.394	0.722	0.446	0.525	0.635	0.519	0.501	0.42	1.02	1.07	0.589
FTNRSYDLDYD [MYC_Y12_N11S]	1.24	0.542	0.841	0.561	0.745	0.488	1.13	0.565	0.632	0.804	0.512	0.645	0.576	0.717	0.418	2.51
GADAIYDHINE [UQCR10_Y44]	1.03	0.91	1.03	0.5	0.563	2.82	0.953	5.57	6.65	0.777	3.14	0.689	4.96	0.704	0.561	0.678
GADDSYYTVRS [ZAP70_Y492_A495V]	1.43	0.68	0.548	5.51	3.76	0.644	0.882	1.44	2.39	1.16	0.676	0.79	1.65	1.62	0.697	0.873
GASWRYRSGVS [NEU1_Y242_G243R]	0.583	0.388	0.608	0.494	0.511	0.474	0.693	0.388	0.46	0.587	0.402	0.48	0.445	0.82	0.524	0.391
GAVDTYCRHNF [HLA-DRB1_Y107_A102G_YF]	0.649	0.695	0.524	0.427	0.528	0.591	0.742	0.479	0.509	0.648	0.474	0.583	0.49	0.958	0.809	0.68
GCKKRYDKDKP [THAP1_Y14_N12K]	0.833	0.449	0.534	0.506	0.703	0.445	0.702	0.396	0.452	0.529	0.6	0.621	0.531	0.755	0.386	0.337
GDYYRSLAEVA [YWHAG_Y133_Y133S]	1.3	1.68	1.09	5.42	3.26	0.419	0.75	0.916	1.36	1.45	0.663	1.82	0.664	1.02	0.648	0.699
GEPLSYTRFSL [TFRC_Y20]	0.833	0.438	0.455	0.452	0.545	0.554	0.935	0.443	0.52	2.21	0.567	1	0.83	0.901	0.519	0.558
GESVSYLFSHV [PRPS1_Y311]	0.872	0.511	0.473	0.397	0.588	0.417	0.996	0.421	0.473	0.847	0.421	0.701	0.431	0.734	2.31	0.566

Sequence	phosphorylation enrichment (AncSZ)	phosphorylation enrichment (EPHB1)	phosphorylation enrichment (EPHB2)	phosphorylation enrichment (FGFR1)	phosphorylation enrichment (FGFR3)	phosphorylation enrichment (Fer (mouse))	phosphorylation enrichment (Fes)	phosphorylation enrichment (Fyn)	phosphorylation enrichment (Hck)	phosphorylation enrichment (Jak2)	phosphorylation enrichment (MERTK)	phosphorylation enrichment (c-Abl (mouse))	phosphorylation enrichment (c-Src)	SH2 binding enrichment (Grb2 SH2)	SH2 binding enrichment (SHP2-C SH2)	SH2 binding enrichment (c-Src SH2)
GFAIVYGTIIL [GPR179_Y460]	1.19	0.644	0.592	0.441	0.84	0.514	1.32	0.431	0.502	1.28	0.389	1.31	0.462	0.604	0.547	0.364
GFEVVYVTEPI [HSP90AB1_Y512_M513V]	1.1	0.344	0.465	0.443	0.605	0.444	0.959	0.424	0.549	0.983	0.386	0.641	0.591	0.802	0.454	0.495
GFKVRYATWSI [FGFR1_Y210_YF]	1.11	0.714	0.534	0.463	0.795	0.512	1.22	0.494	0.512	0.997	0.499	0.711	0.392	1.64	1.63	1.16
GGGGSYNVFGN [HNRNPA1_Y312_D314V]	0.65	0.404	0.523	0.467	0.515	0.419	0.742	0.441	0.424	0.723	0.457	0.652	0.488	0.833	0.747	0.52
GGQVFYNSEYG [FLT4_Y1333]	0.719	0.402	0.442	0.376	0.558	0.36	0.779	0.456	0.462	0.751	0.467	0.497	0.521	0.648	0.707	0.435
GGSTYYIDTNA [ACTL6A_Y69_P66S]	0.882	0.563	0.555	0.724	0.719	0.453	0.998	0.955	0.602	0.668	1.01	0.654	0.805	1.03	0.906	0.731
GGTTLYPGIAD [ACTC1_Y308_M307L]	0.587	0.446	0.531	0.537	0.548	0.431	0.765	0.458	0.442	0.553	0.381	0.484	0.363	0.762	0.648	0.453
GHLYAYNWISI [BEST1_Y227_D228N]	1.71	6.38	5.2	3.67	2.83	12	1.49	1.01	1.24	1.33	8.13	1.21	1.32	0.944	0.816	0.738
GIADDYDKKKP [EIF1_Y54_L59P]	1.01	0.425	0.502	0.501	0.636	0.389	0.998	0.418	0.381	0.909	0.378	0.648	0.436	0.76	0.614	0.895
GILDVYIFLGP [GAA_Y340]	1.27	0.787	0.792	0.864	1.02	0.381	1.44	0.505	0.676	1.21	0.701	0.866	0.7	0.768	0.79	0.44
GISDEYHVIRR [GCDH_Y398_H403R]	0.983	0.529	0.541	1.46	0.881	0.471	0.792	0.517	1.5	0.719	0.457	0.607	0.621	0.833	0.889	0.835
GKSDPYHATTG [GJA1_Y247_S251T]	0.396	0.287	0.254	0.374	0.409	0.38	0.506	0.345	0.413	0.41	0.319	0.476	0.361	0.771	0.778	0.416
GLGGGYGGASG [KRT8_Y54]	0.429	0.376	0.359	0.398	0.367	0.348	0.534	0.344	0.316	0.379	0.285	0.448	0.317	0.692	0.62	0.369
GNLLIYTDFGK [HGD_Y166_E168D]	1.08	3.06	1.27	0.682	0.702	0.726	1.27	4.75	3.49	1.09	3.44	1.53	4.63	0.891	0.822	0.765
GPCKAYELSQR [SETX_Y1297_R1294C]	0.735	0.416	0.63	0.547	0.547	0.496	0.969	0.533	0.467	0.66	0.451	0.664	0.546	0.775	0.958	0.634
GPGSGYTNIMR [PKLR_Y564_R559G]	0.553	0.48	0.398	0.35	0.47	0.362	0.496	0.391	0.444	0.533	0.393	0.827	0.412	3.4	7.01	7.2
